Target: Gal80p (Saccharomyces cerevisiae) (UniProt P04387)
Test: cell-based or functional assay

Chain of UniProt P04387 (P04387 whole entry): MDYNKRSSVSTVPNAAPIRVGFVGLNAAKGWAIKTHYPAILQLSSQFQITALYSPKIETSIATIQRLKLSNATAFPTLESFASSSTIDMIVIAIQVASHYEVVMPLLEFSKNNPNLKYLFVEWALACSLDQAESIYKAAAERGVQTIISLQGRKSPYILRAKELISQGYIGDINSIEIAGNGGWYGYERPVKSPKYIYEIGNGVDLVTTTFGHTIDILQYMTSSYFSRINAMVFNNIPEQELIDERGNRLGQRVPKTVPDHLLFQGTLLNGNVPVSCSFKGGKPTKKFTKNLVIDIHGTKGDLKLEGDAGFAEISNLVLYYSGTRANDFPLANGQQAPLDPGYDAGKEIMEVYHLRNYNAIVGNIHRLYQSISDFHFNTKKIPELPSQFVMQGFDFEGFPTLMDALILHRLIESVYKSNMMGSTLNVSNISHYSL

Substance: Gal3p^MC (metabolic coordinator) (from UniProt P13045 1-520)
- GAL1p-EGFP fluorescence during growth on galactose in strain SFS6: > 5 fold
